The supplement of paper PMC11780869

Tested on: Bacillus subtilis
Assay: cleaved RNA product abundance (RNA/gDNA barcode ratio) relative to median wild-type variant (ratio to wild type); higher = more accumulation of the downstream cleavage product
Method in brief: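 Cleaved product abundance is expressed as the RNA:gDNA barcode ratio per construct, scaled to the median construct carrying the unmutated site. The constructs were barcoded, mutagenized RNase Y cleavage-site windows in truncated aprE or tetM reporter mRNAs integrated into the B. subtilis chromosome. Cultures grew in LB at 37°C from OD600 0.0003 to 0.3 before cleaved RNA was gel-selected and barcode-sequenced.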

[1] = experiment (reporter, strain, medium): exp 8a: truncated aprE reporter, strain BJT201 with 2% xylose (RNase J1 expressed), cleavage site: glnRA (positions -5 to +31 mutated)
[2] = experiment (reporter, strain, medium): exp 4a: truncated aprE reporter, strain BJT201 with 2% xylose (RNase J1 expressed), cleavage site: cggR-gapA (positions -7 to +36 mutated)
[3] = experiment (reporter, strain, medium): exp 2b: truncated aprE reporter, strain BJT200, cleavage site: cggR-gapA (positions -7 to +36 mutated)
[4] = experiment (reporter, strain, medium): exp 6: tetM reporter, strain 168, cleavage site: cggR-gapA (positions -7 to +36 mutated)

| Sequence | cleaved RNA product abundance [1] | cleaved RNA product abundance [2] | also measured |
| --- | --- | --- | --- |
| CGACATGTCCCGCTTCTTTCATTAATCCGTTAGCAACCGTTTTGCTAAATACATTTACCTTTTAAGAGGAGGAAT | 0.432 |  |  |
| CGACATGTCCCGCTTCTTTCATTAATCCGTTAGCAACTTGTTTTGCTATATACATTTACCTTTTAAGAGGAGGAA | 1.01 |  |  |
| ACAGACGAAGGAGCCGCAAAGAAGTTATTAAGGGATGAATAACCCCTAAATATAAATATCTCTCACTTATTTAAA |  | 0.542 |  |
| CGACATGTCCCGCTTCTTTCATTAAGCCGTTAGCAACTGTTTTGCTATATACATTTACCTTTTAAGAGGAGGAAT | 0.855 |  |  |
| ACAGACGAAGGAGCCGCAAAGAAGTTATTAACGGATGAATAATCCCTCAATATAAATATCTCTCACTTATTTAAA |  | 0.177 | cleaved RNA product abundance [3]: 0.133; cleaved RNA product abundance [4]: 0.195 |
| CGACATGTCCCGCTTCTTTCATTAATCCGTTAGCAACTGATTTGATATATACATTTACCTTTTAAGAGGAGGAAT | 0.463 |  |  |
| ACAGACGAAGGAGCCGCAAACAAGTTATGAAGGGATGAATAATCCCTCAATATAAATATCTCTCACTTATTTAAA |  | 0.239 |  |
| ACAGACGAAGGAGCCGCAAAGAAGTTATTAAGGGATGAATAATACCTCAATATAAATACCTCTCACTTATTTAAA |  | 0.162 |  |
| ACAGACGAAGGAGCCGCAAAGAAATTATTAAGGGATGAATAATCCCTCAATAAAAATATCTCTCACTTATTTAAA |  |  | cleaved RNA product abundance [3]: 0.178 |
| ACAGACGAAGGAGCCGCAAAGAAGTTTTAAGGGATGAATAATCCCTCAATATAAATATCTCTCACTTATTTAAAG |  | 0.15 |  |
| CGACATGTCCCGCTTCTTTCATTATTCCGTTAGCAACTCTTTTGCTATATACATTTACCTTTTAAGAGGAGGAAT | 2.3 |  |  |
| ACAGACGAAGGAGCCGCAAAGAAGTTATTAAGGGATAAATAATCCCTCAATATAAATAACTCTCACTTATTTAAA |  | 0.823 |  |
| CGACATGTCCCGCTTCTTTCATTAATCCGTTAGCAACTGTTTTGCTATATAAATTTACATTTTAAGAGGAGGAAT | 1.83 |  |  |
| CGACATGTCCCGCTTCTTTCATTAATCCGTTAGCAATTGTTTTGCTATATAAATTTACCTTTTAAGAGGAGGAAT | 1.01 |  |  |
| CGACATGTCCCGCTTCTTTCATTAATCAGTTAGCAACTGTTTTGATATATACATTTACCTTTTAAGAGGAGGAAT | 0.648 |  |  |
| ACAGACGAAGGAGCCGCAAAGAAGTTATTAAGGGTTGTATAATCCCTCAATATAAATATCTCTCACTTATTTAAA |  | 0.309 |  |
| ACAGACGAAGGAGCCGCAAGGAAGTTATTAAGGGATGAATAATCCCTCAAAATAAATATCTCTCACTTATTTAAA |  | 0.314 |  |
| ACAGACGAAGGAGCCGCAAAGAAGTTATTAAGAGATGAATAATCCCTCACTATAAATATCTCTCACTTATTTAAA |  | 0.131 |  |
| CGACATGTCCCGCTTCTTTCATTAATTCGTTAGCAACTGTTTTGCTATCTACATTTACCTTTTAAGAGGAGGAAT | 0.0856 |  |  |
| ACAGACGAAGGAGCCGCAAAGAAGTTGTTAAGGGATGAATAATCCCTAAATATAAATATCTCTCACTTATTTAAA |  | 0.376 | cleaved RNA product abundance [3]: 0.274 |
| CGACATGTCCCGCTTCTTTCATTAATCCGTTAGCAACTCTTTTACTATATACATTTACCTTTTAAGAGGAGGAAT | 0.579 |  |  |

| Sequence | cleaved RNA product abundance [1] | cleaved RNA product abundance [2] | also measured |
| --- | --- | --- | --- |
| ACAGACGAAGGAGCCGCAAATAAGTTATAAAAGGATGAATAATCCCTCAATATAAATATCTCTCACTTATTTAAA |  | 0.211 |  |
| CGACATGTCCCGCTTCTTTCATTAATCTGTTAGCAACTGTTTGGCTATATACATTTACCTTTTAAGAGGAGGAAT | 0.476 |  |  |
| CGACATGTCCCGCTTCTTTCATTAATACATTAGCGACTTTTTTGCTATATACACTTACCTTTTAAGAGGAGGAAT | 0.352 |  |  |
| ACAGACGAAGGAGCCGCAAAGAAGTTATTAAGGGATGAATAATCGCTCAATGTAAATATCTCTCACTTATTTAAA |  | 0.048 |  |
| CGACATGTCCCGCTTCTTTCATTAATCCTTTAGCAACTGTTTTGCTATAAACATTTACCTTTTAAGAGGAGGAAT | 0.176 |  |  |
| CGACATGTCCCGCTTCTTTCATTAATCCGTTAGTAACTGTTTTGCTATATACATTTACTTTTTAAGAGGAGGAAT | 0.36 |  |  |
| ACAGACGAAGGAGCCGCAAAGAAGTTATTAAGGGATGACTAATCCCTCATTATAAATATCTCTCACTTATTTAAA |  | 0.208 | cleaved RNA product abundance [3]: 0.155 |
| ACAGACGAAGGAGCCGCAAAGAAGTTATTAATTGATGAATAATCCCTCAATATAAATATCTCTCACTTATTTAAA |  | 0.0964 | cleaved RNA product abundance [3]: 0.0997 |
| ACAGACGAAGGAGCCGCAAAGAAGTTATTAAGTGATGAATAATCCATCAATATAAATATCTCTCACTTATTTAAA |  | 0.165 | cleaved RNA product abundance [3]: 0.153 |
| ACAGACGAAGGAGCCGCTAAGAAGTGATTAAGGGATGAATAATCCCTCAATATAAATATCTCTCACTTATTTAAA |  | 0.419 |  |
| ACAGACGAAGGAGCCGCAAAGAAGTTATTAAGGGATGAAATATCCCTCAATATAAATATCTCTCACTTATTTAAA |  | 0.586 |  |
| ACAGACGAAGGAGCCGCAAAGAATTTATTAAGGGATGAACAATCCCTCAATATAAAAATCTCTCACTTATTTAAA |  | 0.8 |  |
| ACAGACGAAGGAGCCGCAAAGAAGTTATTAAGGGAAGAATAATCCCTTAATATAAATATCTCTCACTTATTTAAA |  | 0.952 | cleaved RNA product abundance [3]: 1.05 |
| ACAGACGAAGGAGCCGCAAAAAAGTTATTAAGGGATGAATAATTCCTCAATATAAATATCTCTCACTTATTTAAA |  | 0.814 | cleaved RNA product abundance [3]: 0.68 |
| CGACATGTCCCGCTTCTTTCATTAACCCGTTAGCAACTGTTTTGCTATATATATTTACCTTTTAAGAGGAGGAAT | 1.16 |  |  |
| ACAGACGAAGGAGCCGCAAAGAACTTATTAAGGGATGAATTATCCCACAATATAAATATCTCTCACTTATTTAAA |  | 0.17 |  |
| ACAGACGAAGGAGCCGCAAAGAAGTAATTAAGGGATGAATAATGCCTCAATATAAATATCTCTCACTTATTTAAA |  | 0.164 |  |
| ACAGACGAAGGAGCCGCAAAGAAGTTAGTAAGGGATGAATAATCCTTCAATATAAATATCTCTCACTTATTTAAA |  |  | cleaved RNA product abundance [3]: 0.29 |
| ACAGACGAAGGAGCCGCAAAGAAGTTATTAAGGTATGAATAATCCCTCGATATAAATATCTCTCACTTATTTAAA |  | 0.0744 | cleaved RNA product abundance [3]: 0.0823 |
| ACAGACGAAGGAGCCGCAAATAAGTTATTAAGGGATGAATAATCCTTCAATATAAATATCTCTCACTTATTTAAA |  |  | cleaved RNA product abundance [3]: 0.395 |
| ACAGACGAAGGAGCCGCAAAGAAATTATTAAGGGATGACTAATCTCTCAATATAAATATCTCTCACTTATTTAAA |  | 0.582 |  |

| Sequence | cleaved RNA product abundance [1] | cleaved RNA product abundance [2] | also measured |
| --- | --- | --- | --- |
| CGACATGTCCCGCTTCTTTCATTAATCCGTTAGCAACTGTTTTGATATTTACATTTACCTTTTAAGAGGAGGAAT | 0.18 |  |  |
| ACAGACGAAGGAGCCGCAAAGAAGTTATAAAGGGATGACTAATCCCTCAATATAAATATCTCTCACTTATTTAAA |  | 0.286 | cleaved RNA product abundance [4]: 0.319 |
| CGACATGTCCCGCTTCTTTCATTAATCCGTTAGCAATTGTTTTGCTATATAGATTTACCTTTTAAGAGGAGGAAT | 1.51 |  |  |
| ACAGACGAAGGAGCCGCAAAGAAGTTATTAAGGGATGACTAATACCTCAATATAAATATCTCTCACTTATTTAAA |  | 0.0872 |  |
| ACAGACGAAGGAGCCGCAAACAAGTTATTAAATGATGAATAATCCCTCAATATAAATATCTCTCACTTATTTAAA |  | 0.101 |  |
| CGACATGTCCCGCTTCTTTCATTAATCCGTTAGCAACTGTATTTCTATATACATTTACCTTTTAAGAGGAGGAAT | 0.506 |  |  |
| ACAGACGAAGGAGCCGCAAAGAAATTATTAAGGGATGAATAATCCCTGAATATAAATATCTCTCACTTATTTAAA |  | 0.548 | cleaved RNA product abundance [3]: 0.49 |
| ACAGACGAAGGAGCCGCAAAGAAGTTATTAAGGGAGGAATAATCCATCAATATAAATATCTCTCACTTATTTAAA |  | 0.209 |  |
| ACAGACGAAGGAGCCGCAAACAAGTTATTAAGGGATGAATAATCCCTCAATATAAATTTCTCTCACTTATTTAAA |  | 0.298 |  |
| ACAGACGAAGGAGCCGCAAAGAAGTTATAAAGGGATGAATTATCCCTCAATATAAATATCTCTCACTTATTTAAA |  | 0.469 | cleaved RNA product abundance [3]: 0.279 |
| CGACATGTCCCGCTTCTTTCATTAATCCCTTAGCAACTGTTTTGCTATATACATTTACATTTTAAGAGGAGGAAT | 0.242 |  |  |
| CGACATGTCCCGCTTCTTTCATTAATCCGTAAGCAACTGTTTTGCTATATACCTTTACCTTTTAAGAGGAGGAAT | 0.207 |  |  |
| CGACATGTCCCGCTTCTTTCATTAATCCTTTAGCAACTGTTTTGCTATATACAATTACCTTTTAAGAGGAGGAAT | 0.889 |  |  |
| ACAGACGAAGGAGCCGCAAAGAAGTTATCAAGGGATGAATAATCCCTCAATATAAATATCTCTCACTTATTTAAA |  | 0.385 | cleaved RNA product abundance [3]: 0.27; cleaved RNA product abundance [4]: 0.34 |
| ACAGACGAAGGAGCCGCAAAGAAGTTTTTAAGGGATGAGTAATCCCTCAATATAAATATCTCTCACTTATTTAAA |  | 0.235 |  |
| ACAGACGAAGGAGCCGCAAAGAAGTTATTAAGGGACAAATAATCCCTCAATATAAATATCTCTCACTTATTTAAA |  | 0.84 |  |
| ACAGACGAAGGAGCCGCAAAGAGGTTATTAAGGGATGAATAATCCCTCAATATAAATATCTCTCACTTATTTAAA |  | 0.754 | cleaved RNA product abundance [3]: 0.814; cleaved RNA product abundance [4]: 0.737 |
| CGACATGTCCCGCTTCTTTCATTAATCCGTTAGCAACTGTATTGATATATACATTTACCTTTTAAGAGGAGGAAT | 0.658 |  |  |
| CGACATGTCCCGCTTCTTTCATTAATCCGTTACCGACTGTTTTGCTATATACATTTACCTTTTAAGAGGAGGAAT | 0.269 |  |  |
